# Assay results: publication doi:10.1101/2025.05.22.655130v1
# Substitutions are numbered along the chain they refer to. In names and notes the source's numbering stands.
# B1: β-glucosidase B (BglB) (Paenibacillus polymyxa; L339M) (protein)
# chain: MSENTFIFPATFMWGTSTSSYQIEGGTDEGGRTPSIWDTFCQIPGKVIGGDCGDVACDHFHHFKEDVQLMKQLGFLHYRFSVAWPRIMPAAGIINEEGLLFYEHLLDEIELAGLIPMLTLYHWDLPQWIEDEGGWTQRETIQHFKTYASVIMDRFGERINWWNTINEPYCASILGYGTGEHAPGHENWREAFTAAHHILMCHGIASNLHKEKGLTGKIGITLNMEHVDAASERPEDVAAAIRRDGFINRWFAEPLFNGKYPEDMVEWYGTYLNGLDFVQPGDMELIQQPGDFLGINYYTRSIIRSTNDASLLQVEQVHMEEPVTDMGWEIHPESFYKLMTRIEKDFSKGLPILITENGAAMRDELVNGQIEDTGRHGYIEEHLKACHRFIEEGGQLKGYFVWSFLDNFEWAWGYSKRFGIVHINYETQERTPKQSALWFKQMMAKNGF
# B2: β-glucosidase B (BglB) (Paenibacillus polymyxa; L339A) (protein)
# chain: B1 chain with M339A
# B3: β-glucosidase B (BglB) (Paenibacillus polymyxa; D38W) (protein)
# chain: B1 chain with D38W, M339L
# B4: β-glucosidase B (BglB) (Paenibacillus polymyxa; D38E) (protein)
# chain: B1 chain with D38E, M339L
# B5: β-glucosidase B (BglB) (Paenibacillus polymyxa; L339H) (protein)
# chain: B1 chain with M339H
# B6: β-glucosidase B (BglB) (Paenibacillus polymyxa; L339S) (protein)
# chain: B1 chain with M339S
# Substrate: O=[N+]([O-])c1ccc(O[C@@H]2O[C@H](CO)[C@@H](O)[C@H](O)[C@H]2O)cc1
# Assay: purified protein
# Assay type: biochemical, Paenibacillus polymyxa
# Details: 0.11-100 mM substrate, readings every minute for 15 min; triplicate
Protein,Km [mM],kcat [s⁻¹]
B1,4.72 ± 0.82,6.58 ± 0.302
B2,24.3 ± 1.65,9.47 ± 0.248
B3,2.80 ± 0.55,0.217 ± 0.01
B4,2.72 ± 0.31,0.272 ± 0.00667
B5,3.55 ± 0.26,11.2 ± 0.222
B6,4.44 ± 0.62,9.53 ± 0.348
